Results: patent CN114621348A (SHENZHEN SHENHI BIOMEDICINE CO LTD, dated 2022)

Experiments:
磷脂酰肌醇蛋白聚糖3(GPC3) [1] = target: T1, 磷脂酰肌醇蛋白聚糖3(GPC3) (UniProt P51654 25-554); assay: flow cytometry on HepG2 cells, full-length IgG1
T1 construct: whole, on cells; also called MXR7; OCI-5

磷脂酰肌醇蛋白聚糖3(GPC3) [2] = target: T1, 磷脂酰肌醇蛋白聚糖3(GPC3); assay: flow cytometry on GPC3-CHO-S cells, full-length IgG1
磷脂酰肌醇蛋白聚糖3(GPC3) [3] = target: T1, 磷脂酰肌醇蛋白聚糖3(GPC3); assay: flow cytometry on HuH-7 cells, full-length IgG1
磷脂酰肌醇蛋白聚糖3(GPC3) [4] = target: T1, 磷脂酰肌醇蛋白聚糖3(GPC3); assay: flow cytometry on HepG2 cells
磷脂酰肌醇蛋白聚糖3(GPC3) [5] = target: T1, 磷脂酰肌醇蛋白聚糖3(GPC3); assay: flow cytometry on HuH-7 cells
磷脂酰肌醇蛋白聚糖3(GPC3) [6] = target: T1, 磷脂酰肌醇蛋白聚糖3(GPC3); assay: flow cytometry on GPC3-CHO-S cells

T1 sequence (P51654 25-554 limits assumed, form in doubt): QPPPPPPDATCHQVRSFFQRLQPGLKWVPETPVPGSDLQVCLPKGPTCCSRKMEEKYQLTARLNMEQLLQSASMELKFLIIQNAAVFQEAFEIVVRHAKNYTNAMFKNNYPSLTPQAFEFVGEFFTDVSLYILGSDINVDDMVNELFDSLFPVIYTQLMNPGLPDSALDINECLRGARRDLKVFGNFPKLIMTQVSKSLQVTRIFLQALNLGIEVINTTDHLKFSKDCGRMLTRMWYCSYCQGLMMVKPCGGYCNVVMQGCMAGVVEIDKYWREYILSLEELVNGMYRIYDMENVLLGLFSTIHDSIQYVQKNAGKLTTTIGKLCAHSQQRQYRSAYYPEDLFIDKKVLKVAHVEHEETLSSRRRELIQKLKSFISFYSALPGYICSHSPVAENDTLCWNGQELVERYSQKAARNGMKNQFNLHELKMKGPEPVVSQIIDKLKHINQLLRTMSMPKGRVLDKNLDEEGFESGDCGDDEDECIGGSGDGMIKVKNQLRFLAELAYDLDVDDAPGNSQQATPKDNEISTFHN

B1: D48 (antibody, V domains shown)
VH: EVQLLESGGGLVQPGESLRLSCEASGLTFSSYPMAWVRQAPGKGLEWVSVIYSDGSKKFYADSVKGRFTISRHNSKNTLYLQMNSLRAEDTAVYYCARGISSSGFDYWGQGTLVTVSS
VL: DIQLTQSPSSLSASVGDRVTITCRASQGISSWLAWYQQKPGKAPKLLIYAASSLQSGVPSRFSGSGSGTDFTLTISSLQPEDFATYYCQQGNSFPLTFGGGTKVEIK
notes: also called 克隆D48
EC50 (磷脂酰肌醇蛋白聚糖3(GPC3) [1]): 11.6 µg/mL
EC50 (磷脂酰肌醇蛋白聚糖3(GPC3) [2]): 0.0968 µg/mL

B2: D47 (antibody, V domains shown)
VH: EVQLLESGGGLVKPGGSLRLSCAASGFTFSSYSMNWVRQAPGKGLEWVSSISSSSSYIYYADSVKGRFTISRDNAKNSLYLQMNSLRAEDTAVYYCARGAARFDYWGQGTMVTVSS
VL: NIQLTQSPSSVSASVGDRVTITCRASQGIWRWLAWYQHKPGKAPKLLISAASNLQSGVPSRFSGSGSGTDFTLTISSLQPEDVATYYCQQANSFPSLTFGGGTKVDIR
notes: also called 克隆D47
EC50 (磷脂酰肌醇蛋白聚糖3(GPC3) [3]): 0.0228 µg/mL

B3: D42 (antibody, V domains shown)
VH: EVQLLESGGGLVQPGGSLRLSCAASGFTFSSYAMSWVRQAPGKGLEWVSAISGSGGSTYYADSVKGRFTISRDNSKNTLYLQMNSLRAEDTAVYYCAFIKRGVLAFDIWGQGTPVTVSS
VL: DIQLTQSPSSVSASVGDRVVITCRASQSLGNWLAWYQQKPGKAPNLLIYGASTLQTGVPSRFSGFHSGGEYTLSISNLQPEDAATYYCQQASSIPLTFGGGTKVEIK
notes: also called 克隆D42
EC50 (磷脂酰肌醇蛋白聚糖3(GPC3) [1]): 18.3 µg/mL

B4: Codrituzumab (antibody, human IgG1, kappa, V domains shown)
VH: QVQLVQSGAEVKKPGASVKVSCKASGYTFTDYEMHWVRQAPGQGLEWMGALDPKTGDTAYSQKFKGRVTLTADKSTSTAYMELSSLTSEDTAVYYCTRFYSYTYWGQGTLVTVSS
VL: DVVMTQSPLSLPVTPGEPASISCRSSQSLVHSNRNTYLHWYLQKPGQSPQLLIYKVSNRFSGVPDRFSGSGSGTDFTLKISRVEAEDVGVYYCSQNTHVPPTFGQGTKLEIKR
notes: also called GC33; GPC3阳性抗体
EC50 (磷脂酰肌醇蛋白聚糖3(GPC3) [4]): 0.172 µg/mL
EC50 (磷脂酰肌醇蛋白聚糖3(GPC3) [5]): 0.191 µg/mL
EC50 (磷脂酰肌醇蛋白聚糖3(GPC3) [6]): 0.184 µg/mL

B5: D36 (antibody, V domains shown)
VH: EVQLLESGGGLVKPGGSLRLSCAASGFTFSSYSMNWVRQAPGKGLEWVSSISSSSSYIYYADSVKGRFTISRDNAKNSLYLQMNSLRAEDTAVYYCARETTDGGMDVWGQGTLVTVSS
VL: DIQMTQSPSSVSASVGDRVTITCRASQDIGKYLNWYQQKAGKAPNLLIYDASNLKTGVSSRFSGSGSGTEFTFTISSLQPEDIATYFCQQFDDFPYTFGPGTKVGIR
notes: also called 克隆D36
EC50 (磷脂酰肌醇蛋白聚糖3(GPC3) [2]): 0.0394 µg/mL

B6: D37 (antibody, V domains shown)
VH: QVQLLESGGGLVQPGGSLRLSCAASGFTFSSYAMNWVRQAPGKGLEWVSTISGSGGSTYYADSVKGRFTISRDNSKNTLYLQMNSLRAEDTAVYYCARGSWGAFDIWGQGTPVTVSS
VL: DIQLTQSPSSLSASVGDRVTITCQASQGISNYVNWYQQKPGKAPELLISDAYNLEAGVPSTFSGSGSGTQFTFTISSLQPEHIGTYYCQQFETIPWTFGQGTKIEVK
notes: also called 克隆D37
EC50 (磷脂酰肌醇蛋白聚糖3(GPC3) [3]): 6.21 µg/mL
EC50 (磷脂酰肌醇蛋白聚糖3(GPC3) [2]): 0.0314 µg/mL

B7: D38 (antibody, V domains shown)
VH: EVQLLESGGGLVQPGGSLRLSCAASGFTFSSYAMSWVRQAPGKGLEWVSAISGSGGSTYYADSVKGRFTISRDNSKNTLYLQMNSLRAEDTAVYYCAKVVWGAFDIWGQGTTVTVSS
VL: NIQMTQSPSSLSASVGDRVTISCQASQDISNYVNWYQQRPGKAPKLLMYDASNLEVGVPVRFRGSGSGTEFTFTILSLQPEDLGTYYCQQYDSLPFTFGQGTKLDLK
notes: also called 克隆D38
EC50 (磷脂酰肌醇蛋白聚糖3(GPC3) [1]): 83.9 µg/mL
EC50 (磷脂酰肌醇蛋白聚糖3(GPC3) [3]): 45.1 µg/mL
EC50 (磷脂酰肌醇蛋白聚糖3(GPC3) [2]): 0.0394 µg/mL

B8: D35 (antibody, V domains shown)
VH: EVQLVESGGGVVKPGGSLRLSCAASGFIFSDSYMTWLRQAPGKGLEWVSYISGSASDIKYADSVKGRFTISRDNAKNSLYLQMNSLRVEDTAVYYCARDPRLAGIWGQGTTVTVSS
VL: DIQLTQSPSTLSASIGDRVTITCRASQRVSSRLAWYQQKPGKAPKLLIYKTSNLEAEVPSRFSGSGSGTEFTLTISSLQPDDFATYYCQQYHSYPLTFGGGTKVEIK
notes: also called 克隆D35
EC50 (磷脂酰肌醇蛋白聚糖3(GPC3) [1]): 7.94 µg/mL
EC50 (磷脂酰肌醇蛋白聚糖3(GPC3) [2]): 0.0316 µg/mL

B9: D5 (antibody, V domains shown)
VH: EVQLLESGGGVVQPGRSLRLSCAASGFTFSSYAMHWVRQAPGKGLEWVAVISYDGSNKYYADSVKGRFTISRDNSKNTLYLQMNSLRAEDTAVYYCARQYSSSSPFDYWGQGTLVTVSS
VL: NIQLTQSPSTLSASVGDRITITCRASQSISRWLAWYQQKPGKAPKVLIYKASNLENGVPSRFSGSGSGTEFTLTISSLQPDDSATYYCQQHSYSSPWRFGQGTKVEIK
notes: also called 克隆D5
EC50 (磷脂酰肌醇蛋白聚糖3(GPC3) [3]): 9.62 µg/mL
EC50 (磷脂酰肌醇蛋白聚糖3(GPC3) [2]): 0.0664 µg/mL
